This data set concerns the molecule itself. Put plainly: AUC; sedimentation velocity, 1.0 mg.ml^-1 SuhB, no Mg^2+; 20 mM Tris-HCl pH 7.9, 50 mM NaCl, 40,000 rpm, 4°C; monomer to dimer.

These results are taken from article PMC2080633, “Dimerization of inositol monophosphatase Mycobacterium tuberculosis SuhB is not constitutive, but induced by binding of the activator Mg^2+” (BMC Structural Biology, 2007).

Broadly, the stoichiometry N is the number of molecules, sites or subunits per partner or assembly.

B1: Mycobacterium tuberculosis SuhB (Rv2701c), inositol monophosphatase (enzyme)
chain: MTRPDNEPARLRSVAENLAAEAAAFVRGRRAEVFGISRAGDGDGAVRAKSSPTDPVTVVDTDTERLLRDRLAQLRPGDPILGEEGGGPADVTATPSDRVTWVLDPIDGTVNFVYGIPAYAVSIGAQVGGITVAGAVADVAARTVYSAATGLGAHLTDERGRHVLRCTGVDELSMALLGTGFGYSVRCREKQAELLAHVVPLVRDVRRIGSAALDLCMVAAGRLDAYYEHGVQVWDCAAGALIAAEAGARVLLSTPRAGGAGLVVVAAAPGIADELLAALQRFNGLEPIPD
notes: Inositol monophosphatase SuhB (Rv2701c) of Mycobacterium tuberculosis; the crystal model covers residues 5-34, 54-85, 98-253, 260-286; also called IMPase
In the case of B1, the “stoichiometry N” value amounted to 2.
